Here are results for 24 molecules from patent publication US20180209983A1 (SUBDOMAIN, published 2018).

Assay [1] addresses T1, purified recombinant PD1-Fc protein (UniProt Q15116 25-167, limits assumed).
T1 construct: not shown: Fc portion
Put plainly: phage ELISA; signal on target-Fc over non-specific control (e.g. IgG1-Fc); average where several clones. The protocol: (§1) Selections were also performed using F1, F2, F3, C1 & C2 trinucleotide phosphoramidite libraries. In most cases, libraries were pooled prior to use in selection. By combining equal volumes of the individual libraries, Pool F (libraries F1, F2 and F3) and Pool C (libraries C1 and C2) were generated. These libraries were used in selections for DBDpp binders to 4-1BB/CD137 as well as a larger panel of purified recombinant “target”-Fc proteins, including CD47, CTLA4, DR5, KIR, LAG3, OX40, PD1, PD-L1 and TIM3. (Many of these targets are considered immuno-regulatory factors (Pardoll et al., Nat. Rev. Cancer 12:252-264 (2012)). After incubation of the target with the pools of DBDpp phage libraries, bound phage-target complexes were captured and separated from unbound phage with protein A beads (target proteins were Fc fusions). After three rounds of selection, rescued phage clones were screened by ELISA for binding to the selected target.
(§2) For each target, approximately 90 DBDpp phage clones were screened by ELISA for binding to the target protein and as well as a non-specific control (e.g., IgG1-Fc). […] In some instances, for the ELISA screening plate in which the majority of DBDpp clones were positive, the entire plate was sequenced.
In general terms: ELISA stands for enzyme-linked immunosorbent assay.

The target in assay [2] is T2, purified recombinant PD-L1-Fc protein (UniProt Q9NZQ7 19-238).
T2 construct: also called B7-H1; not shown: Fc portion
The assay is described as above. The protocol: as §1, §2

The target in assay [3] is T2, purified recombinant PD-L1-Fc protein. The assay is described as follows: phage ELISA; signal on target-Fc over non-specific control (e.g. IgG1-Fc). The protocol: as §1, §2
The target of assay [4] is T3, recombinant, biotinylated, Human 4-1BB/TNFRSF9/CD137-Fc (human, UniProt Q07011 24-186, biotinylated (site not stated)).
T3 construct: Selection and screening target of the phage ELISA; also called 4-1BB/CD137; not shown: Fc portion
The assay is described as follows: phage ELISA of rescued clones on human CD137-Fc. From the text: The F2NNK DBD library was used in five rounds of selection against recombinant, biotinylated, Human 4-1BB/TNFRSF9/CD137-Fc.

The target of assay [5] is purified recombinant KIR-Fc protein. The assay is described as follows: phage ELISA; signal on target-Fc over non-specific control (e.g. IgG1-Fc); average where several clones.
For assay [6] the target is unchanged. The assay is described as follows: phage ELISA; signal on target-Fc over non-specific control (e.g. IgG1-Fc).
The target in assay [7] is T4, purified recombinant TIM3-Fc protein (UniProt Q8TDQ0 22-202, limits assumed).
T4 construct: not shown: Fc portion
Put plainly: phage ELISA; signal on target-Fc over non-specific control (e.g. IgG1-Fc); average where several clones. How it is done: as §1, §2

For assay [8], the target named is T5, purified recombinant DR5-Fc protein (UniProt O14763-2 56-182, limits assumed).
T5 construct: also called TRAIL-R2; not shown: Fc portion
The description is as above. The protocol: as §1, §2

T1 sequence (Q15116 25-167 limits assumed): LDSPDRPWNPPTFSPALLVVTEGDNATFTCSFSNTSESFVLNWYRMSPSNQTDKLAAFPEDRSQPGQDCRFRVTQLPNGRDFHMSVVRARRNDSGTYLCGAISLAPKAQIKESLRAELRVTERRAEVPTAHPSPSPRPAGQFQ
T5 sequence (O14763 56-182 limits assumed): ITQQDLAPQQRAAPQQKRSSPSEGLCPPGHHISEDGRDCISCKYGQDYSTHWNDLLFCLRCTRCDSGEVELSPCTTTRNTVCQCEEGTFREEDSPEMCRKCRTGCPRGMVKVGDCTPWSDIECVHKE
T2 sequence (Q9NZQ7 19-238 limits assumed): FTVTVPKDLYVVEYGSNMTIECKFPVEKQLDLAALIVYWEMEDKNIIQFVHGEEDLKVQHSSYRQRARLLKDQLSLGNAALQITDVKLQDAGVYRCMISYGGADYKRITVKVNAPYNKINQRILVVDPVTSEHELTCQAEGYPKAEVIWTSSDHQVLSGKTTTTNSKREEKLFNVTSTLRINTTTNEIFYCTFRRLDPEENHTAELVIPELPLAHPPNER
T3 sequence (Q07011 24-186 limits assumed): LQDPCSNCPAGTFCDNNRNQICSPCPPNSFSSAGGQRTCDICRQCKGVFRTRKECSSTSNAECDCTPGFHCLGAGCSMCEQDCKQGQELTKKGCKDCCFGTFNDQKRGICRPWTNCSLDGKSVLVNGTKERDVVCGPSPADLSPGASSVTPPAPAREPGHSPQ

B1: DBDpp of SEQ ID NO: 47, phage-displayed (designed binder)
chain: MGSWVMFKWLLADIKSHLEALGGSEAELAFFEGFIAAFETHLQVYKGKGNPEVEALRKEAAAIRDELQAYRHN
notes: F1 library; rescued M13 phage clone, DBDpp fused to pIII
In the case of B1, the ELISA ratio in assay [1] was 8.13.

B2: DBDpp of SEQ ID NO: 48, phage-displayed (designed binder)
chain: MGSWYAFKDYLADIKGWLEALGGSEAELAFFEIFIARFELELQAYKGKGNPEVEALRKEAAAIRDELQAYRHN
notes: as for B1
Turning to B2, in assay [1], the ELISA ratio was found to be 3.29.

B3: DBDpp of SEQ ID NO: 40, phage-displayed (designed binder)
chain: MGSWYEFQNRLHAIHERLNALGGSEAELAAFEKEIAAFESELQAYKGKGNPEVELLRDDAAFIRHFLQAYRHN
notes: F3 library; rescued M13 phage clone, DBDpp fused to pIII
B3: in assay [2], the ELISA ratio came to 6.34.

B4: DBDpp of SEQ ID NO: 41, phage-displayed (designed binder)
chain: MGSWFEFQDRLTAINERLSALGGSEAELAAFEKEIAAFESELQAYKGKGNPEVETLRSDAAFIRRFLQAYRHN
notes: as for B3
In the case of B4, the ELISA ratio in assay [2] was determined as 6.01.

B5: DBDpp of SEQ ID NO: 44, phage-displayed (designed binder)
chain: MGSWFEFENRLHAIVHRLGALGGSEAELAAFEKEIAAFESELQAYKGKGNPEVETLRADAAFIRHYLQAYRHN
notes: as for B3
For the molecule B5, the ELISA ratio in assay [2] is 2.76.

B6: DBDpp of SEQ ID NO: 43, phage-displayed (designed binder)
chain: MGSWYEFNHRLDAISKRLNALGGSEAELAAFEKEIAAFESELQAYKGKGNPEVEELRGDAAFIRHFLQAYRHN
notes: as for B3
Regarding B6, the ELISA ratio in assay [2] came to 2.98.

B7: DBDpp of SEQ ID NO: 61, phage-displayed (designed binder)
chain: MGSWYEFDDRLNAIHDRLQALGGSEAELAAFEKEIAAFESELQAYKGKGNPEVEDLRDDAAFIRRFLQAYRHN
notes: as for B3
Regarding B7, the ELISA ratio in assay [3] amounted to 12.2.

B8: DBDpp of SEQ ID NO: 39, phage-displayed (designed binder)
chain: MGSWQEFDDRLNAIKARLQALGGSEAELAAFEKEIAAFESELQAYKGKGNPEVEDLRDDAAFIRRFLQAYRHN
notes: as for B3
In the case of B8, the ELISA ratio in assay [2] amounted to 7.41.

B9: DBDpp of SEQ ID NO: 38, phage-displayed (designed binder)
chain: MGSWTEFQSRLDAIHSRLRALGGSEAELAAFEKEIAAFESELQAYKGKGNPEVELLRDDAAFIRHFLQAYRHN
notes: as for B3
For the molecule B9, the ELISA ratio in assay [2] was determined as 8.68.

B10: DBDpp of SEQ ID NO: 42, phage-displayed (designed binder)
chain: MGSWYEFESRLDAIHERLHALGGSEAELAAFEKEIAAFESELQAYKGKGNPEVENLRGDAAFIRHFLQAYRHN
notes: as for B3
B10: the ELISA ratio in assay [2] was found to be 4.88.

B11: DBDpp of SEQ ID NO: 60, phage-displayed (designed binder)
chain: MGSWYEFTVRLEAIHERLKALGGSEAELAAFEKEIAAFESELQAYKGKGNPEVEILRDDAAFIRRFLQAYRHN
notes: as for B3
Consider B11, for which the ELISA ratio in assay [3] was found to be 17.3.

B12: bb10 (DBDpp clone from the F2NNK library), phage-displayed (designed binder)
chain: MGSWAEFKQRLAAIKTRLEALGGSEAELAAFLGEIWAFEMELAAYKGKGNPEVEALGREAAAIRMELQAYRHN
notes: Tested as rescued M13 phage; In the F2NNK library the DBDpp carries an N-terminal FLAG tag and is fused at its C-terminus to M13 pIII (pComb phagemid); also called the 89 clones
For the molecule B12, in assay [4], the “fold of ELISA OD over control (IgG Fc)” value was 5.3 fold.

B13: DBDpp of SEQ ID NO: 36, phage-displayed (designed binder)
chain: MGSWYEFYNRLYAIEIRLYALGGSEAELAAFEKEIAAFESELQAYKGKGNPEVERLRVRAAKIRVILQAYRHN
As to B13, the ELISA ratio in assay [5] turned out to be 4.24.

B14: DBDpp of SEQ ID NO: 37, phage-displayed (designed binder)
chain: MGSWLWFKIFLAEIKYFLEALGGSEAELAAFDFEIHAFHVELFAYKGKGNPEVEVLREVAAEIRWDLQAYRHN
Regarding B14, the ELISA ratio in assay [6] worked out at 4.17.

B15: DBDpp of SEQ ID NO: 45, phage-displayed (designed binder)
chain: MGSWVVFKVDLATIKYILEALGGSEAELAEFEGEIAGFEYSLQFYKGKGNPEVEALRKEAAAIRDELQAYRHN
notes: F1 library
B15: in assay [7], the ELISA ratio was found to be 5.79.

B16: DBDpp of SEQ ID NO: 30, phage-displayed (designed binder)
chain: MGSWHYFKDHLAEIKGLLEALGGSEAELAHFEMAIADFEHNLQYYKGKGNPEVEALRKEAAAIRDELQAYRHN
notes: as for B1
Turning to B16, in assay [8], the ELISA ratio was 11.4.

B17: DBDpp of SEQ ID NO: 31, phage-displayed (designed binder)
chain: MGSWHYFKGHLAEIKNHLEALGGSEAELAHFERAIAAFERSLQWYKGKGNPEVEALRKEAAAIRDELQAYRHN
notes: as for B1
For B17, the ELISA ratio in assay [8] is 10.8.

B18: DBDpp of SEQ ID NO: 32, phage-displayed (designed binder)
chain: MGSWIYFKEHLAYIKKELEALGGSEAELAHFESAIAVFESTLQYYKGKGNPEVEALRKEAAAIRDELQAYRHN
notes: as for B1
In the case of B18, the ELISA ratio in assay [8] stood at 10.7.

B19: DBDpp of SEQ ID NO: 34, phage-displayed (designed binder)
chain: MGSWWLFKDHLAEIKTALEALGGSEAELAHFEMAIAAFEKQLQYYKGKGNPEVEALRKEAAAIRDELQAYRHN
notes: as for B1
Take B19: the ELISA ratio in assay [8] was found to be 9.75.

B20: DBDpp of SEQ ID NO: 33, phage-displayed (designed binder)
chain: MGSWTYFKEHLAEIKYMLEALGGSEAELAHFEVAIADFEKMLQYYKGKGNPEVEALRKEAAAIRDELQAYRHN
notes: as for B1
For the molecule B20, the ELISA ratio in assay [8] stood at 10.3.

B21: DBDpp of SEQ ID NO: 35, phage-displayed (designed binder)
chain: MGSWSEFYNRLDAIESRLLALGGSEAELALFEIQIARFEKVLQAYKGKGNPEVEALRGEARAIFAELYAYRHN
Consider B21, for which the ELISA ratio in assay [5] came out at 8.4.

B22: DBDpp of SEQ ID NO: 28, phage-displayed (designed binder)
chain: MGSWVYFKEHLAWIKTELEALGGSEAELAHFEHSIADFEMSLQFYKGKGNPEVEALRKEAAAIRDELQAYRHN
notes: F1 library
For B22, the ELISA ratio in assay [8] was 12.1.

B23: DBDpp of SEQ ID NO: 29, phage-displayed (designed binder)
chain: MGSWFYFKQHLAWIKSYLEALGGSEAELAHFERAIAAFEQHLQMYKGKGNPEVEALRKEAAAIRDELQAYRHN
notes: as for B1
For B23, in assay [8], the ELISA ratio turned out to be 11.8.

B24: DBDpp of SEQ ID NO: 46, phage-displayed (designed binder)
chain: MGSWTIFKEWLAFIKTDLEALGGSEAELAFFEGWIASFEMELQKYKGKGNPEVEALRKEAAAIRDELQAYRHN
notes: as for B1
For B24, the ELISA ratio in assay [1] stood at 17.1.
